B1: LINE1-full (parent)
chain: UACGUAGGUGGUUUUCCCCUGAUAGUGCUAAGGGGGCCUGGAAGUUUGGACUGGGCAGAGCUCAACACAGCGUGGCAAAGUGGCUGUGGCUAGACUGCCUCUCUGGAUUCCUCGUCACUCAGCAGGGCAUCUCUGAGAGAAAUGCC

Variants of: B1
Assay: self-cleavage, relative activity (ratio to wild type); higher = more cleavage; in vitro, sequencing; the parent is a self-cleaving ribozyme

In order of rising self-cleavage:
1. UACGUAGGUGGUUUUCCCCUGAUAGUGCUAAGGGGGCCUGGAAGUUUGGACUGGGCAGAGCUCAACACAGCGAGGCAAAGUGGCUGUGGCUAUACUGCCUCUCUGGAUUCCUCGUCACUCAGCAGGGCAUCUCUGAGAGAAAUGCC [U73A G93U]  0.03
2. UACGUAGGUGGUUUUCCCCUGAUAGUGCUAAGGGGGCCUGGAAGUUUGGACUGGGCAGAGCUCAACACAGCGAGGCAAAGUGGCUGUGGCUAGACAGCCUCUCUGGAUUCCUCGUCACUCAGCAGGGCAUCUCUGAGAGAAAUGCC [U73A U96A]  0.05
3. UACGUAGGUGGUUUUCCCCUGAUAGUGCUAAGGGGGCCUGGAAGUUUGGACUGGGCAGAGCUCAACACAGCGAGGCAAAGUGGCUGUGGCUAGAGUGCCUCUCUGGAUUCCUCGUCACUCAGCAGGGCAUCUCUGAGAGAAAUGCC [U73A C95G]  0.06
4. UACGUAGGUGGUUUUCCCCUGAUAGUGCUAAGGGGGCCUGGAAGUUUGGACUGGGCAGAGCUCAACACAGCGAGGCAAAGUGGCUGAGGCUAGACUGCCUCUCUGGAUUCCUCGUCACUCAGCAGGGCAUCUCUGAGAGAAAUGCC [U73A U87A]  0.07
5. UACGUAGGUGGUUUUCCCCUGAUAGUGCUAAGGGGGCCUGGAAGUUUGGACUGGGCAGAGCUCAACACAGCGAGGCAAAGUGGCUGUGGCUAGACCGCCUCUCUGGAUUCCUCGUCACUCAGCAGGGCAUCUCUGAGAGAAAUGCC [U73A U96C]  0.1
6. UACGUAGGUGGUUUUCCCCUGAUAGUGCUAAGGGGGCCUGGAAGUUUGGACUGGGCAGAGCUCAACACAGCGAGGCAAAGUGGCUGUGGCUAGACUACCUCUCUGGAUUCCUCGUCACUCAGCAGGGCAUCUCUGAGAGAAAUGCC [U73A G97A]  0.11
7. UACGUAGGUGGUUUUCCCCUGAUAGUGCUAAGGGGGCCUGGAAGUUUGGACUGGGCAGAGCUCAACACAGCGAGGCAAAGUGGCUGUGGCCAGACUGCCUCUCUGGAUUCCUCGUCACUCAGCAGGGCAUCUCUGAGAGAAAUGCC [U73A U91C]  0.19
8. UACGUAGGUGGUUUUCCCCUGAUAGUGCUAAGGGGGCCUGGAAGUUUGGACUGGGCAGAGCUCAACACAGCGAGGCAAAGUGACUGUGGCUAGACUGCCUCUCUGGAUUCCUCGUCACUCAGCAGGGCAUCUCUGAGAGAAAUGCC [U73A G83A]  0.53
9. UACGUAGGUGGUUUUCCCCUGAUAGUGCUAAGGGGGCCUGGAAGUUUGGACUGGGCAGAGCUCAACACAGCGAGGCAAAGUGGCUGUGGCUAGACUGCAUCUCUGGAUUCCUCGUCACUCAGCAGGGCAUCUCUGAGAGAAAUGCC [U73A C99A]  0.92
10. UACGUAGGUGGUUUUCCCCUGAUAGUGCUAAGGGGGCCUGGAAGUUUGGACUGGGCAGAGCUCAACACAGCGAGGCAAAGUGGCUGUGGCUAGACUGCCACUCUGGAUUCCUCGUCACUCAGCAGGGCAUCUCUGAGAGAAAUGCC [U73A U100A]  0.97
11. UACGUAGGUGGUUUUCCCCUGAUAGUGCUAAGGGGGCCUGGAAGUUUGGACUGGGCAGAGCUCAACACAGCGAGGCAAAGUGGCUGUGGCUAGACUGCCUCUCUGGAUUCCUCGUCAUUCAGCAGGGCAUCUCUGAGAGAAAUGCC [U73A C118U]  1.25
12. UACGUAGGUGGUUUUCCCCUGAUAGUGCUAAGGGGGCCUGGAAGUUUGGACUGGGCAGAGCUCAACACAGCGAGGCAAAGUGGCUGUGGCUAGACUGCCUCUCUGGAUUCCUCGUCACUCAGCAGGGCAUCUCUGAGAGAAAUACC [U73A G144A]  1.4
13. UACGUAGGUGGUUUUCCCCUGAUAGUGCUAAGGGGGCCUGGAAGUUUGGACUGGGCAGAGCUCAACACAGCGAGGCAAAGUGGCUGUGGCUAGACUGCCUCUCUGGAUUCCUUGUCACUCAGCAGGGCAUCUCUGAGAGAAAUGCC [U73A C113U]  1.41
14. UACGUAGGUGGUUUUCCCCUGAUAGUGCUAAGGGGGCCUGGAAGUUUGGACUGGGCAGAGCUCAACACAGCGAGGCAAAGUGGCUGUGGCUAGACUGCCUCUCUGGAUUCUUCGUCACUCAGCAGGGCAUCUCUGAGAGAAAUGCC [U73A C111U]  1.54
15. UACGUAGGUGGUUUUCCCCUGAUAGUGCUAAGGGGGCCUGGAAGUUUGGACUGGGCAGAGCUCAACACAGCGAGGCAAAGUGGCUGUGGCUAGACUGCCUCUCUGGAUUCCUCGUCACUCAGCAGGACAUCUCUGAGAGAAAUGCC [U73A G127A]  1.58
16. UACGUAGGUGGUUUUCCCCUGAUAGUGCUAAGGGGGCCUGGAAGUUUGGACUGGGCAGAGCUCAACACAGCGAGGCAAAGUGGCUGUGGCUAGACUGCCUCUCUGGAUUCCUCGUCACUCAGCAGGGCAUCUCUGAAAGAAAUGCC [U73A G137A]  1.7
17. UACGUAGGUGGUUUUCCCCUGAUAGUGCUAAGGGGGCCUGGAAGUUUGGACUGGGCAGAGCUCAACACAGCGAGGCAAAGUGGCUGUGGCUAGACUGCCUCUCUGGAUUCCUCGUCACUUAGCAGGGCAUCUCUGAGAGAAAUGCC [U73A C120U]  1.79
18. UACGUAGGUGGUUUUCCCCUGAUAGUGCUAAGGGGGCCUGGAAGUUUGGACUGGGCAGAGCUCAACACAGCGAGGCAAAGUGGCUGUGGCUAGACUGCCUCUCUGGAUUCCUCGUCACUCAGCAAGGCAUCUCUGAGAGAAAUGCC [U73A G125A]  1.92
19. UACGUAGGUGGUUUUCCCCUGAUAGUGCUAAGGGGGCCUGGAAGUUUGGACUGGGCAGAGCUCAACACAGCGAGGCAAAGUGGCUGUGGCUAGACUGCCUCUCUAGAUUCCUCGUCACUCAGCAGGGCAUCUCUGAGAGAAAUGCC [U73A G105A]  2.29
20. UACGUAGGUGGUUUUCCCCUGAUAGUGCUAAGGGGGCCUGGAAGUUUGGACUGGGCAGAGCUCAACACAGCGAGGCAAAGUGGCUGUGGCUAGACUGCCUUUCUGGAUUCCUCGUCACUCAGCAGGGCAUCUCUGAGAGAAAUGCC [U73A C101U]  2.61
